For assay [1], the target named is full length human PDGFR-beta on HEK293 cells (human) (UniProt P09619). Nature of the assay: cell-based or functional assay.
Assay [2] concerns the target Macaca fascicularis PDGFRb.mmh (Macaca fascicularis). Put plainly: SPR, mAb captured, 25 C.
Assay [3] addresses hPDGFRb.mmh (human) (UniProt P09619). Nature of the assay: SPR, mAb captured, 25 C. In general terms: SPR reads the build-up and loss of mass on a sensor chip optically.
Assay [4] deals with human PDGFRb.hFc (human). Put plainly: SPR, mAb captured, 25 C.
Assay [5] deals with Macaca fascicularis PDGFRb.mmh (Macaca fascicularis). Nature of the assay: SPR, mAb captured, 37 C.
Assay [6] has as its target hPDGFRb.mmh (human) (UniProt P09619). Put plainly: SPR, mAb captured, 37 C.
Assay [7] addresses human PDGFRb.hFc (human). Put plainly: SPR, mAb captured, 37 C.
The target of assay [8] is hPDGFRb.mmh (human) (UniProt P09619). Put plainly: blocking ELISA, biot-hPDGFRb.mmh to coated PDGF-BB. Background: In an ELISA, binding on a coated surface is turned into a signal by an enzyme label.
The target is the same in assay [9]. Put plainly: blocking ELISA, biot-hPDGFRb.mmh to coated PDGF-BB; average of three experiments.
Assay [10] has the same target. Put plainly: Octet BLI cross-competition, 25 C; hPDGFRb.mmh on anti-Penta-His tips pre-saturated with mAb-1 H4H3099S (row 6). Background: In BLI a coated tip is dipped into the sample, and binding shifts an interference pattern.
Assay [11] shares this target. Nature of the assay: Octet BLI cross-competition, 25 C; hPDGFRb.mmh on anti-Penta-His tips pre-saturated with mAb-1 H4H3107S (row 7).
For assay [12] the target is unchanged. Put plainly: Octet BLI cross-competition, 25 C; hPDGFRb.mmh on anti-Penta-His tips pre-saturated with mAb-1 H4H3305N (row 8).
Assay [13] has the same target. Put plainly: Octet BLI cross-competition, 25 C; hPDGFRb.mmh on anti-Penta-His tips pre-saturated with mAb-1 H4H3310N (row 9).
Assay [14] shares this target. Put plainly: Octet BLI cross-competition, 25 C; hPDGFRb.mmh on anti-Penta-His tips pre-saturated with mAb-1 Control I (row 1); self-competition.

Usually pKd stands for the negative decadic logarithm of the Kd, by convention in mol/L. Lower therefore signals a high Kd. For orientation: koff means a measure of how fast the partners let go of each other. One may read the kon as a measure of how fast the partners come together. By pIC50 is commonly meant the negative decadic logarithm of the IC50, by convention in mol/L. Low readings indicate a high IC50, high ones a low IC50.

pIC50, pKd: −log10 of the molar value.

Sequence of Macaca fascicularis PDGFRb.mmh (Macaca fascicularis) (chain, as listed by the source): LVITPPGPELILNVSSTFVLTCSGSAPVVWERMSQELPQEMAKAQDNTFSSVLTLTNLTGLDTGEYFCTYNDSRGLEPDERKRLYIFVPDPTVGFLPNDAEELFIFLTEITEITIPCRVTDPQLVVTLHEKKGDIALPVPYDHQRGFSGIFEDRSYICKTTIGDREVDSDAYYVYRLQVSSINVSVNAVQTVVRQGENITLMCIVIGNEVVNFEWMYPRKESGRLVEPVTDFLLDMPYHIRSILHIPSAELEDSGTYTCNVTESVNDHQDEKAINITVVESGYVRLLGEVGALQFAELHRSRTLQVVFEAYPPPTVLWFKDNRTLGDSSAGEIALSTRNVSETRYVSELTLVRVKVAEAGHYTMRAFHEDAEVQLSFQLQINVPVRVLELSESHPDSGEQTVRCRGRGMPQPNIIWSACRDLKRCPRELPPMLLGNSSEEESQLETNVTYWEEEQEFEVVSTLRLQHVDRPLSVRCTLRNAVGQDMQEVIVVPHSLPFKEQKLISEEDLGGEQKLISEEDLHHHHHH
Sequence of hPDGFRb.mmh (human) (P09619 other isoform, or with tags, fused parts or gaps): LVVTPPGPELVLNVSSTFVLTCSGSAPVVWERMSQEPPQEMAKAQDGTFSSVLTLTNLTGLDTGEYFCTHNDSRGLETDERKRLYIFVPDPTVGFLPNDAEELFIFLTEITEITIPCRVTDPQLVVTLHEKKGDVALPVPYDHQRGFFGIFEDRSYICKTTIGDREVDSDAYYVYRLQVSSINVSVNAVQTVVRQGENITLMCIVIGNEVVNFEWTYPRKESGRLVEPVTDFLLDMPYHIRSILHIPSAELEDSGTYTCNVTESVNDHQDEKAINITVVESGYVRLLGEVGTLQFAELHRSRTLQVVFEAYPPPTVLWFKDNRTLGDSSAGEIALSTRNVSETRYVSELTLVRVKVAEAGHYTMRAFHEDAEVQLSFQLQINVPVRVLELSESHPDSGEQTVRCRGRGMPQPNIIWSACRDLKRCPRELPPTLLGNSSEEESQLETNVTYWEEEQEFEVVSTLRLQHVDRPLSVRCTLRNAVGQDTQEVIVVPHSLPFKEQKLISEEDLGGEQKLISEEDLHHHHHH
Sequence of Control I (antibody) (VH): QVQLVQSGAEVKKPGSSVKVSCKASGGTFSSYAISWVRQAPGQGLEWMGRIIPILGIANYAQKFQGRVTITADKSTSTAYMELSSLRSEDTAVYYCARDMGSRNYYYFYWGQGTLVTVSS
Sequence of Control I (antibody) (VL): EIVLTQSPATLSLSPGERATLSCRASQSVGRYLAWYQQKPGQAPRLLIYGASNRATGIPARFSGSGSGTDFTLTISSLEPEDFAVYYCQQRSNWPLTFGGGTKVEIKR
Sequence of full length human PDGFR-beta on HEK293 cells (human) (P09619 33-1106 limits assumed): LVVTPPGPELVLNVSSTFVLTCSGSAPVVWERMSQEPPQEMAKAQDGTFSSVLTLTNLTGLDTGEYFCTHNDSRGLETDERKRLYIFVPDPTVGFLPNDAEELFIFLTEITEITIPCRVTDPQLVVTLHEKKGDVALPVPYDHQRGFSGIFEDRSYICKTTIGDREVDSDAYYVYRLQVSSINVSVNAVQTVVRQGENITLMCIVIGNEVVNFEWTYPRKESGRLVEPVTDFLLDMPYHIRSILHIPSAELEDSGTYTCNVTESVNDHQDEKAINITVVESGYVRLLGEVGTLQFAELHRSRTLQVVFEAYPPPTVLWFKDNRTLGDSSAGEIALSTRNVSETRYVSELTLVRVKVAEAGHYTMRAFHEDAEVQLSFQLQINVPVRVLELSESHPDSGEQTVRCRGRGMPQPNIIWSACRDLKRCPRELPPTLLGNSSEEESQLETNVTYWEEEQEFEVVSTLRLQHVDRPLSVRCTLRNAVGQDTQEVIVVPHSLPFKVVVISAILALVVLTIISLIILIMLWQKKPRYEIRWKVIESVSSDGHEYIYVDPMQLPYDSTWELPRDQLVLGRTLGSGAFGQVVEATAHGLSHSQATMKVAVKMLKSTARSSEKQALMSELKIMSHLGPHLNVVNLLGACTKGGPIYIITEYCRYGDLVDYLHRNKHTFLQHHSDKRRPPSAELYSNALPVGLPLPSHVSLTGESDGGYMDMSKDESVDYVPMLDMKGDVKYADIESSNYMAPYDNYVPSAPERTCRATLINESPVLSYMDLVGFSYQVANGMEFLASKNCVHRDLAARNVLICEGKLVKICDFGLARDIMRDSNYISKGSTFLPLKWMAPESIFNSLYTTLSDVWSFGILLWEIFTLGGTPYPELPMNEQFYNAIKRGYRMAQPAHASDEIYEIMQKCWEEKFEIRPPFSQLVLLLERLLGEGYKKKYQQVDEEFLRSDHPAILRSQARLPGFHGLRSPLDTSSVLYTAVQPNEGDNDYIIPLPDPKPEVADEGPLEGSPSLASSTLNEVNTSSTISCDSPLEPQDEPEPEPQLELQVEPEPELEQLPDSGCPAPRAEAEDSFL

Control I (antibody): the IC50, blocking PDGF-BB (250 pM) activation, SRE-luciferase in [1] came to 1.8e-10 M. Also, the IC50, blocking PDGF-DD (400 pM) activation, SRE-luciferase in assay [1] came out at 1.8e-10 M. Moreover, the Percent Internalization (Relative to Control I) in [1] was 100%. Moreover, the pKd is 8.09 in assay [2]; 7.90 in the assay with hPDGFRb.mmh (human) [3]; 9.56 in the assay with human PDGFRb.hFc (human) [4]; 7.70 in assay [5]; 7.49 with hPDGFRb.mmh (human) [6]; 9.57 with human PDGFRb.hFc (human) [7]. Moreover, the koff is 0.00243 s⁻¹ in assay [2]; 0.00349 s⁻¹ with hPDGFRb.mmh (human) [3]; 0.00015 s⁻¹ in the assay with human PDGFRb.hFc (human) [4]; 0.00982 s⁻¹ in assay [5]; 0.0146 s⁻¹ with hPDGFRb.mmh (human) [6]; 0.000217 s⁻¹ in the assay with human PDGFRb.hFc (human) [7]. The kon in assay [2] came out at 302000 M⁻¹ s⁻¹; in the assay with hPDGFRb.mmh (human) [3], 277000 M⁻¹ s⁻¹; with human PDGFRb.hFc (human) [4], 539000 M⁻¹ s⁻¹; in assay [5], 489000 M⁻¹ s⁻¹; in the assay with hPDGFRb.mmh (human) [6] it was 450000 M⁻¹ s⁻¹; with human PDGFRb.hFc (human) [7] it was 804000 M⁻¹ s⁻¹. In addition, the t1/2 came to 5 min in [2]; 3 min with hPDGFRb.mmh (human) [3]; 77 min with human PDGFRb.hFc (human) [4]; 1.2 min in assay [5]; 0.8 min in the assay with hPDGFRb.mmh (human) [6]; 53 min with human PDGFRb.hFc (human) [7]. The same substance had a % Maximum Blocking with hPDGFRb.mmh (human) [8] of 92%. In the assay with hPDGFRb.mmh (human) [9], this substance showed a negative-log IC50 (pIC50) of 9.47. The Response of mAb-2 Binding to hPDGFRβ.mmh Pre-Complexed with mAb-1 (nm) with hPDGFRb.mmh (human) [10] came to 0.34 nm; with hPDGFRb.mmh (human) [11], 0.32 nm; with hPDGFRb.mmh (human) [12] it was 0.34 nm; in the assay with hPDGFRb.mmh (human) [13], 0.33 nm; in the assay with hPDGFRb.mmh (human) [14] it was 0.05 nm.

Isotype Ctrl (antibody) had a Percent Internalization (Relative to Control I) in assay [1] of 4%.
